Molecular target: TolB construct MV37 (TolB Δ1–22) (E. coli) (UniProt P0A855)
Assay: SPR

Substance | Kd
TolAIII construct YZ48 (wild-type TolAIII) (domain or fragment) | 4.1 µM
TolAIII construct YZ74 (TolAIII Y352H,V407E) (domain or fragment) | 23.6 µM

Source: publication PMC2707214
